Measured values taken from patent US5597719, “Interaction of RAF-1 and 14-3-3 proteins” (Onyx Pharmaceuticals, Inc., dated 1997).

What was measured:
[1] = target: GAL4 DNA-binding domain alone (Saccharomyces cerevisiae (strain ATCC …, UniProt P04386)); test: yeast two-hybrid
From the text: However, interaction between 14-3-3β and the bcr gene product, which itself has endogenous kinase activity, was detected.
The Raf-1 coding sequence was isolated by PCR amplification of a human placental cDNA library purchased from Stratagene (San Diego, Calif.) as described by MacDonald et al. (1993) *Mol. Cell Biol.* 13: 16.15. For use in the two hybrid screen (Chien et al. (1991) *Proc. Natl. Acad. Sci. USA* 88: 9578), the Raf-1 gene was fused to sequence encoding the GAL4-DNA binding domain by digesting pGEM Raf-I with NcoI and SacI to liberate the Raf-1 coding sequence and subcloning into the pGBT8 plasmid (Hannon et al. (1993) *Genes & Dev.* 7: 2378) digested also with Nco I and Sac I. Yeast (*S. cerevisiae*) of strain YGH-1 (Hannon et al. (1993) op.cit.) were transformed with pGBT8 Raf1, and the resultant strain was transformed with a HeLa cell cDNA library encoding fusions with the GAL4 activation domain in the plasmid pGAD (Chien et al. (1991) *Proc. Natl. Acad. Sci.* (USA) 88: 9578). The YGH-1 strain contains two reported genes, HIS3 and lacZ, which allow selection of cDNAs encoding proteins capable of interacting with the gene of interest, in this case, Raf-1. The first selection was by the ability to grow on plates lacking histidine. Positive colonies were then tested for production of β-galactodidase using X-gal as substrate as described by Hannon et al. op.cit. […]

[2] = target: full-length Raf-1 (wildtype Raf) (human); test: cell-based or functional assay
[3] = target: Ras-binding domain of Raf (aa51-aa131) (human); test: ELISA

| Binder | binding result [1] | Raf activity in cells containing the 14-3-3 proteins [2] | binding result [3] |
| --- | --- | --- | --- |
| 14-3-3ζ (not fused to GAL4) (other) MDKNELVQKAKLAEQAERYDDMAACMKSVTEQGAELSNEERNLLSVAYKNVVGARRSSWRVVSSIEQKTEGAEKKQQMAREYREKIETELRDICNDVLSLLEKFLIPNASQAESKVFYLKMKGDYYRYLAEVAAGDDKKGIVDQSQQAYQEAFEISKKEMQPTHPIRLGLALNFSVFYYEILNSPEKACSLAKTAFDEAIAELDTLSEESYKDSTLIMQLLRDNLTLWTSDTQGDEAEAGEGGEN |  | 2 fold increase over background |  |
| 14-3-3β (not fused to GAL4) (other) MTMDKSELVQKAKLAEQAERYDDMAAAMKAVTEQGHELSNEERNLLSVAYKNVVGARRSSWRVISSIEQKTERNEKKQQMGKEYREKIEAELQDICNDVLELLDKYLIPNATQPESKVFYLKMKGDYFRYLSEVASGDNKQTTVSNSQQAYQEAFEISKKEMQPTHPIRLGLALNFSVFYYEILNSPEKACSLAKTAFDEAIAELDTLNEESYKDSTLIMQLLRDNLTLWTSENQGDEGDAGEGEN |  | 2 fold increase over background | no binding |

The next lines start with the values.

| binding result [1] | Raf activity in cells containing the 14-3-3 proteins [2] | binding result [3] | Binder |
| --- | --- | --- | --- |
| no binding |  |  | human P1A2 (14-3-3ζ) fused with GAL4 activation domain (other) MDKNELVQKAKLAEQAERYDDMAACMKSVTEQGAELSNEERNLLSVAYKNVVGARRSSWRVVSSIEQKTEGAEKKQQMAREYREKIETELRDICNDVLSLLEKFLIPNASQAESKVFYLKMKGDYYRYLAEVAAGDDKKGIVDQSQQAYQEAFEISKKEMQPTHPIRLGLALNFSVFYYEILNSPEKACSLAKTAFDEAIAELDTLSEESYKDSTLIMQLLRDNLTLWTSDTQGDEAEAGEGGEN |
| no binding |  |  | human HS1 1054 (14-3-3β) fused with GAL4 activation domain (other) MTMDKSELVQKAKLAEQAERYDDMAAAMKAVTEQGHELSNEERNLLSVAYKNVVGARRSSWRVISSIEQKTERNEKKQQMGKEYREKIEAELQDICNDVLELLDKYLIPNATQPESKVFYLKMKGDYFRYLSEVASGDNKQTTVSNSQQAYQEAFEISKKEMQPTHPIRLGLALNFSVFYYEILNSPEKACSLAKTAFDEAIAELDTLNEESYKDSTLIMQLLRDNLTLWTSENQGDEGDAGEGEN |
